Assay results as given in patent publication US20170166631A1 (published 2017).
Read-outs that look alike come from different tables or passages of the source.

T1: HD21 (huntingtin exon 1 protein with 21 polyQ repeats after cleavage of the GST tag; aggregation reaction) (human, UniProt P42858 1-88)
T1 chain: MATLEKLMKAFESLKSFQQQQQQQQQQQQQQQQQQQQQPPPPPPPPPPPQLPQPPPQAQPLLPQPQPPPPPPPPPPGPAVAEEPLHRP

T2: HD49 (huntingtin exon 1 protein with 49 polyQ repeats after cleavage of the GST tag; aggregation reaction) (human, UniProt P42858 1-88)
T2 chain: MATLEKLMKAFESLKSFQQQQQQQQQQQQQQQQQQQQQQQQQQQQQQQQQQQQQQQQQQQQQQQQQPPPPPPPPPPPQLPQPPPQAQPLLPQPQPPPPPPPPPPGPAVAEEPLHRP

T3: BSA-coupled synthetic peptide of the polyP repeat sequence of huntingtin exon 1 (coupled to BSA)
T3 peptide: PPPPPPPPPPP


Tests used:
Test in all cases: ELISA
[1] = target: T1, HD21 (huntingtin exon 1 protein with 21 …)
[2] = target: T2, HD49 (huntingtin exon 1 protein with 49 …)
[3] = target: T4, GST-HttExon1Q21 (recombinant huntingtin exon 1 protein with 21 polyQ repeats fused to an N-terminal GST tag) (;human, UniProt P08515 1-218 = GST; P42858 1-88)
Target sequence in this assay (P08515 1-218, tags or fused parts left off): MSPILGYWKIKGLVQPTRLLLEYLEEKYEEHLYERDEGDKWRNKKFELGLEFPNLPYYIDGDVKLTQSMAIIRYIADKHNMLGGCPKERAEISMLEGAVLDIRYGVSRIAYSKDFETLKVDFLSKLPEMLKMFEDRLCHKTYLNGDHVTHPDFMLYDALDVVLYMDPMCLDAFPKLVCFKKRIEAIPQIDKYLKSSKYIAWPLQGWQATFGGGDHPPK

[4] = target: T1, HD21 (huntingtin exon 1 protein with 21 …)
[5] = target: T2, HD49 (huntingtin exon 1 protein with 49 …)
[6] = target: T4, GST-HttExon1Q21 (recombinant huntingtin …); remark: listed apart in the source
[7] = target: T1, HD21 (huntingtin exon 1 protein with 21 …)
[8] = target: T2, HD49 (huntingtin exon 1 protein with 49 …)
[9] = target: T4, GST-HttExon1Q21 (recombinant huntingtin …); remark: listed apart in the source
[10] = target: T3, BSA-coupled synthetic peptide of the …
[11] = target: T1, HD21 (huntingtin exon 1 protein with 21 …)
[12] = target: T4, GST-HttExon1Q21 (recombinant huntingtin …); remark: listed apart in the source

Binder	EC50 [1]	EC50 [2]	EC50 [3]	EC50 [4]	EC50 [5]	EC50 [6]	EC50 [7]	EC50 [8]	EC50 [9]	EC50 [10]	EC50 [11]	EC50 [12]
NI-302.15E8 (antibody, V domains shown) VH: EVQLVESGGGLIQPGGSLRLSCAVSGFTVSSYSMNWVRQAPGKGLEWVSYTSSSRSNTKKYADSVKGRFTISRDNARNSLYLQMNSLRDEDTAVYYCARAGDFGELLTGEGYYGMDVWGQGTTVTVSS VL: SYELTQPPSVSVSPGQTATITCSGDELGDKYVGWYQQKPGQSPLLVIYQDAKRPSGIPERFSGSNSGNTATLTISGTQAMDEADYYCQAWDSGTMVFGGGTRLTVL	> 100 nM	> 100 nM	9.3 nM	> 100 nM	> 100 nM	9.3 nM	–	–	–	–	–	–
NI-302.33C11 (antibody, V domains shown) VH: EVQLVESGGGVVQPGNSLRLSCAASGFRFSDFGMHWVRQAPGKGLEWLALIWYDGGYKYYADSVKGRFTISRDNSKNTMFLQMNSLRAEDTAVYYCATHLEYCSRTTCYLGHWGQGTLVTVSS VL: DIQLTQSPSFLSASVGDTVTFTCRASQGISDYLAWFQQKPGIAPKLLIYAASTLQTGVPSRFSGSGSGTEFTLTIRSLQSEDFGTYYCQQLKTYPYTFGQGTKVEIK	0.13 nM	0.15 nM	0.11 nM	–	–	–	0.13 nM	0.15 nM	0.11 nM	0.1 nM	–	–
NI-302.35C1 (antibody, V domains shown) VH: EVQLVESGGNLVQPGGSLRLSCTASGFTFSITALSWVRQAPEKGPQWVSAITGNAYGTYYADSVKGRFTISRDNAKNTLYLQMNGLRAEDTAIYYCVKGIASDSSGYSAFWGPGTLVTVSS VL: EIVLTQSPATLSLSPGERATLSCRASQSVDNQFAWYQQKPGQAPRLLIYDASRRAPGIPDRFSGSGSGTDFTLTISSLEPEDFAIYYCQHRYTWLYTFGQGTRLEIK	7.9 nM	–	4.6 nM	–	–	–	–	–	–	–	7.9 nM	4.6 nM
